test system: Escherichia coli TOP10; assay: shrunken log2 fold change of peptide-encoding DNA abundance (4.5 h post-induction vs induction); higher = less antimicrobial activity (less host growth inhibition); conditions: time post-induction: 4.5 h; library: site-saturation at positions 5, 18, 19, 20
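Note: peptides expressed intracellularly from a pBAD plasmid library in pooled LB shake-flask culture, induced with 0.3% L-arabinose, DNA abundance read by NGS, three biological replicates, DESeq2 with apeglm shrinkage.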

Sequence	shrunken log2 fold change
RRIRHRPPRLPRPRPRPCLNPRP	-0.263
RRIRARPPRLPRPRPRPDDSPRP	0.124
RRIRYRPPRLPRPRPRPHVLPRP	-0.0311
RRIRYRPPRLPRPRPRPKMNPRP	-0.616
RRIRVRPPRLPRPRPRPINPPRP	-0.327
RRIRGRPPRLPRPRPRPDFHPRP	-0.0976
RRIRFRPPRLPRPRPRPKHYPRP	-0.271
RRIRIRPPRLPRPRPRPLSPPRP	1.35
RRIRIRPPRLPRPRPRPRHCPRP	0.0849
RRIRCRPPRLPRPRPRPCKPPRP	-0.216
RRIRCRPPRLPRPRPRPEQHPRP	0.0913
RRIRGRPPRLPRPRPRPNICPRP	0.168
RRIRTRPPRLPRPRPRPHDEPRP	0.00408
RRIRDRPPRLPRPRPRPCWMPRP	-0.0868
RRIRPRPPRLPRPRPRPGKLPRP	-0.4
RRIRIRPPRLPRPRPRPKNLPRP	-0.0922
RRIRQRPPRLPRPRPRPIWTPRP	0.0198
RRIRERPPRLPRPRPRPACMPRP	-0.0379
RRIRERPPRLPRPRPRPRYSPRP	-0.182
RRIRLRPPRLPRPRPRPWMIPRP	-0.0928
RRIRPRPPRLPRPRPRPTGGPRP	0.392
RRIRHRPPRLPRPRPRPYHNPRP	-0.853
RRIRTRPPRLPRPRPRPLYNPRP	-0.715
RRIRERPPRLPRPRPRPYEWPRP	-0.00963
RRIRRRPPRLPRPRPRPNFWPRP	0.198

Sequence	shrunken log2 fold change
RRIRYRPPRLPRPRPRPKMHPRP	-0.561
RRIRSRPPRLPRPRPRPFYLPRP	-0.818
RRIRARPPRLPRPRPRPMAGPRP	0.163
RRIRKRPPRLPRPRPRPEITPRP	2.03
RRIRERPPRLPRPRPRPLFTPRP	-0.55
RRIRLRPPRLPRPRPRPWAKPRP	0.173
RRIRVRPPRLPRPRPRPLFDPRP	-0.172
RRIRYRPPRLPRPRPRPPGPPRP	0.455
RRIRGRPPRLPRPRPRPCQPPRP	-0.0639
RRIRWRPPRLPRPRPRPYWSPRP	-0.295
RRIRPRPPRLPRPRPRPSLLPRP	-0.205
RRIRRRPPRLPRPRPRPVEHPRP	0.0989
RRIRERPPRLPRPRPRPSQNPRP	-0.267
RRIRKRPPRLPRPRPRPDEKPRP	0.411
RRIRDRPPRLPRPRPRPKDWPRP	0.601
RRIRRRPPRLPRPRPRPYNLPRP	-0.233
RRIRFRPPRLPRPRPRPHRCPRP	-0.0295
RRIRARPPRLPRPRPRPNYLPRP	0.00106
RRIRARPPRLPRPRPRPGPFPRP	0.231
RRIRMRPPRLPRPRPRPNCCPRP	-0.0306
RRIRLRPPRLPRPRPRPDKSPRP	-0.118
RRIRPRPPRLPRPRPRPSIFPRP	-0.284
RRIRIRPPRLPRPRPRPYEKPRP	-0.352
RRIRVRPPRLPRPRPRPISAPRP	1.18
RRIRVRPPRLPRPRPRPVDVPRP	-0.106

Sequence	shrunken log2 fold change
RRIRWRPPRLPRPRPRPSSYPRP	-0.123
RRIRFRPPRLPRPRPRPNVTPRP	-0.724
RRIRVRPPRLPRPRPRPIYDPRP	-0.576
RRIRNRPPRLPRPRPRPWTWPRP	-0.0415
RRIRRRPPRLPRPRPRPNNDPRP	-0.358
RRIRFRPPRLPRPRPRPQDNPRP	-0.186
RRIRDRPPRLPRPRPRPNMQPRP	-0.339
RRIRHRPPRLPRPRPRPTTFPRP	0.0797
RRIRTRPPRLPRPRPRPYGAPRP	-0.0628
RRIRVRPPRLPRPRPRPIGHPRP	-0.426
RRIRQRPPRLPRPRPRPHTTPRP	0.182
RRIRDRPPRLPRPRPRPNCLPRP	0.0835
RRIRFRPPRLPRPRPRPREIPRP	0.0702
RRIRTRPPRLPRPRPRPVQEPRP	0.207
RRIRPRPPRLPRPRPRPRQQPRP	0.13
RRIRDRPPRLPRPRPRPYVCPRP	0.0261
RRIRGRPPRLPRPRPRPLCGPRP	0.78
RRIRIRPPRLPRPRPRPWRPPRP	0.145
RRIRGRPPRLPRPRPRPHEQPRP	0.0117
RRIRQRPPRLPRPRPRPKHIPRP	-0.456
RRIRQRPPRLPRPRPRPTIHPRP	-0.32
RRIRWRPPRLPRPRPRPVAQPRP	0.386
RRIRTRPPRLPRPRPRPGKIPRP	0.0168
RRIRMRPPRLPRPRPRPDANPRP	3.18
RRIRVRPPRLPRPRPRPSMNPRP	0.331

Sequence	shrunken log2 fold change
RRIRIRPPRLPRPRPRPSNHPRP	-1.15
RRIRNRPPRLPRPRPRPMKLPRP	-0.282
RRIRSRPPRLPRPRPRPNRNPRP	-0.163
RRIRQRPPRLPRPRPRPQTFPRP	0.028
RRIRTRPPRLPRPRPRPEIFPRP	-0.303
RRIRDRPPRLPRPRPRPHRKPRP	0.00895
RRIRDRPPRLPRPRPRPTDDPRP	-0.0281
RRIRIRPPRLPRPRPRPAPGPRP	0.371
RRIRIRPPRLPRPRPRPDPPPRP	0.075
RRIRIRPPRLPRPRPRPKRFPRP	0.276
RRIRYRPPRLPRPRPRPTYPPRP	0.105
RRIRARPPRLPRPRPRPYVKPRP	-0.539
RRIRERPPRLPRPRPRPTAIPRP	0.32
RRIRHRPPRLPRPRPRPIPVPRP	-0.037
RRIRVRPPRLPRPRPRPQHHPRP	-0.182
RRIRSRPPRLPRPRPRPLAWPRP	0.402
RRIRTRPPRLPRPRPRPNVWPRP	0.0477
RRIRHRPPRLPRPRPRPRYWPRP	0.319
RRIRWRPPRLPRPRPRPACVPRP	0.347
RRIRKRPPRLPRPRPRPHTTPRP	0.0925
RRIRNRPPRLPRPRPRPEYWPRP	-0.103
RRIRCRPPRLPRPRPRPGFLPRP	-0.245
RRIRPRPPRLPRPRPRPYVDPRP	-0.117
RRIRYRPPRLPRPRPRPCQKPRP	-0.0134
RRIRIRPPRLPRPRPRPCHEPRP	-0.0297

Sequence	shrunken log2 fold change
RRIRARPPRLPRPRPRPTGGPRP	0.836
RRIRMRPPRLPRPRPRPFQVPRP	0.0921
RRIRHRPPRLPRPRPRPQHAPRP	0.0729
RRIRNRPPRLPRPRPRPGMHPRP	-0.015
RRIRGRPPRLPRPRPRPTDCPRP	0.275
RRIRIRPPRLPRPRPRPAQLPRP	-0.177
RRIRNRPPRLPRPRPRPNSSPRP	-0.219
RRIRGRPPRLPRPRPRPCMIPRP	0.235
RRIRGRPPRLPRPRPRPMWHPRP	0.441
RRIRRRPPRLPRPRPRPYDKPRP	-0.213
RRIRSRPPRLPRPRPRPYAHPRP	-0.131
RRIRKRPPRLPRPRPRPWWDPRP	-0.0115
RRIRMRPPRLPRPRPRPEARPRP	1.76
RRIRYRPPRLPRPRPRPTLDPRP	-0.628
RRIRERPPRLPRPRPRPIMQPRP	-0.164
RRIRARPPRLPRPRPRPDAGPRP	0.94
RRIRARPPRLPRPRPRPSSHPRP	-0.471
RRIRVRPPRLPRPRPRPMIIPRP	-1.25
RRIRKRPPRLPRPRPRPDYTPRP	-0.193
RRIRFRPPRLPRPRPRPGVIPRP	-0.356
RRIRPRPPRLPRPRPRPTNLPRP	-0.107
RRIRWRPPRLPRPRPRPMKQPRP	-0.208
RRIRQRPPRLPRPRPRPTLIPRP	-0.131
RRIRLRPPRLPRPRPRPVMAPRP	0.0839
RRIRNRPPRLPRPRPRPSQCPRP	-0.13

Sequence	shrunken log2 fold change
RRIRLRPPRLPRPRPRPFCQPRP	-0.078
RRIRDRPPRLPRPRPRPWSGPRP	-0.0455
RRIRGRPPRLPRPRPRPVQSPRP	0.689
RRIRLRPPRLPRPRPRPQQRPRP	-0.299
RRIRHRPPRLPRPRPRPGKTPRP	-0.031
RRIRHRPPRLPRPRPRPAYSPRP	-0.000852
RRIRRRPPRLPRPRPRPAGDPRP	0.563
RRIRPRPPRLPRPRPRPITPPRP	0.0216
RRIRRRPPRLPRPRPRPTAPPRP	0.583
RRIRDRPPRLPRPRPRPQLFPRP	-0.0901
RRIRKRPPRLPRPRPRPAGVPRP	0.685
RRIRCRPPRLPRPRPRPDEPPRP	0.189
RRIRCRPPRLPRPRPRPWDKPRP	-0.0809
RRIRLRPPRLPRPRPRPHGQPRP	0.0101
RRIRRRPPRLPRPRPRPCLSPRP	-0.114
RRIRVRPPRLPRPRPRPLKKPRP	0.181
RRIRRRPPRLPRPRPRPRQRPRP	0.636
RRIRERPPRLPRPRPRPPRVPRP	0.342
RRIRLRPPRLPRPRPRPEFNPRP	-0.0571
RRIRHRPPRLPRPRPRPSNCPRP	-0.337
RRIRARPPRLPRPRPRPSKEPRP	0.103
RRIRIRPPRLPRPRPRPNVQPRP	-0.284
RRIRLRPPRLPRPRPRPAQMPRP	0.122
RRIRWRPPRLPRPRPRPMEYPRP	0.0388
RRIRLRPPRLPRPRPRPHAMPRP	-0.0654

Reference: the supplement of paper PMC9112550, “Optimization of the antimicrobial peptide Bac7 by deep mutational scanning” (BMC Biology, 2022)
